Assay results published in paper PMC3084675 (Molecular Biology of the Cell, 2011).
One block for each molecule: values may come before it.

Assays:
[1] = biological target: FAK (focal adhesion kinase) FERM domain (UniProt O35346); test: GST-FERM pull-down of His-Dyn2; settings: reference: His-Dyn2 wild type from TKB1 (phosphorylated); sites Y231,Y597
[2] = biological target: FAK (focal adhesion kinase) (UniProt O35346); test: S-bead precipitation of SFB-FAK, Dyn2 blot; settings: reference: wild-type Dyn2; sites Y231,Y597
[3] = biological target: SFB-FAK (S protein, Flag, and streptavidin binding peptide triple tagged FAK) (rat, UniProt O35346 1-1055); test: co-IP
[4] = biological target: T1, GST-FERM (FERM domain of FAK) (rat, UniProt O35346 35-355); test: pull-down
T1 sequence (looked up): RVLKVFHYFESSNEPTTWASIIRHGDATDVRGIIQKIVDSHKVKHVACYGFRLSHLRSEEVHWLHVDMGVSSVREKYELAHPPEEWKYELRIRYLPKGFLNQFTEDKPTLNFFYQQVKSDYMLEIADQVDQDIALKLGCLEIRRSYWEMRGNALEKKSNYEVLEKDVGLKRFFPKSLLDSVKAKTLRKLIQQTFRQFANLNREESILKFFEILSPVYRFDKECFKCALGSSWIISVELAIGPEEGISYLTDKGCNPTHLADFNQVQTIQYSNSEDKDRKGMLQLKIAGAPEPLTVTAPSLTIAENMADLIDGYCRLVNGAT

Sequence of SFB-FAK (S protein, Flag, and streptavidin binding peptide triple tagged FAK) (O35346 whole entry, the tested form may be a part): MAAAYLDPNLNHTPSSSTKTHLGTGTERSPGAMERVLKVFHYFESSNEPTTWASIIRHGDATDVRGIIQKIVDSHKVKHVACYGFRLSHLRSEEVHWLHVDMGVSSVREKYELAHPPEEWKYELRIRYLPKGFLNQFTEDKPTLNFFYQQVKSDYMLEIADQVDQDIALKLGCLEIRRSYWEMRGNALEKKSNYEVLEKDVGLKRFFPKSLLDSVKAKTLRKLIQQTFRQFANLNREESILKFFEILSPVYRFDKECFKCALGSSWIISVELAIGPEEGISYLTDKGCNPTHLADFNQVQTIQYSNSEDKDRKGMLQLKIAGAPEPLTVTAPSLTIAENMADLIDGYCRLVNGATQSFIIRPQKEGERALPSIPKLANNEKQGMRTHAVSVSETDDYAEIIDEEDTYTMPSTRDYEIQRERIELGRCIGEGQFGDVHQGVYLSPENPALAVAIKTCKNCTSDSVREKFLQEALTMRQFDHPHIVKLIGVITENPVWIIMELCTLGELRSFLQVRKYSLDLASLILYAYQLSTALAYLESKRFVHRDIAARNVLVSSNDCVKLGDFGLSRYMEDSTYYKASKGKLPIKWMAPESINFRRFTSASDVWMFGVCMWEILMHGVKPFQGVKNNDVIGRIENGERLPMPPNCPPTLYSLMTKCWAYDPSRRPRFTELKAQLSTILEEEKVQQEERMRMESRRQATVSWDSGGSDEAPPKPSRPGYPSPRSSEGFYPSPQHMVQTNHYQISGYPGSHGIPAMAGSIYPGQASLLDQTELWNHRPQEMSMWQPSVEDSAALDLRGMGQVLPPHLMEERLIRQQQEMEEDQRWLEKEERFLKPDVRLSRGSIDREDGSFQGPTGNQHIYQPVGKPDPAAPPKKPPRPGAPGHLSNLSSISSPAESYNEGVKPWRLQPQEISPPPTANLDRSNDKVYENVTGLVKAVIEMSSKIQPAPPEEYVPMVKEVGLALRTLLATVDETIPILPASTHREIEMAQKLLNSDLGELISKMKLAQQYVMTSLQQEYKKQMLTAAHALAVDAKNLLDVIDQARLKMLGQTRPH

Molecule: Dyn2 (dynamin-2) (from UniProt P39052) His-Dyn2 Y231F/Y597F from TKB1
- fold change [1]: weaker; reference threefold

B2: His-Dyn2 WT purified from TKB1 E. coli (pDyn2 protein) (natural protein)
chain: MGNRGMEELIPLVNKLQDAFSSIGQSCHLDLPQIAVVGGQSAGKSSVLENFVGRDFLPRGSGIVTRRPLILQLIFSKTEYAEFLHCKSKKFTDFDEVRQEIEAETDRVTGTNKGISPVPINLRVYSPHVLNLTLIDLPGITKVPVGDQPPDIEYQIKDMILQFISRESSLILAVTPANMDLANSDALKLAKEVDPQGLRTIGVITKLDLMDEGTDARDVLENKLLPLRRGYIGVVNRSQKDIEGRKDIRAALAAERKFFLSHPAYRHMADRMGTPHLQKTLNQQLTNHIRESLPTLRSKLQSQLLSLEKEVEEYKNFRPDDPTRKTKALLQMVQQFGVDFEKRIEGSGDQVDTLELSGGARINRIFHERFPFELVKMEFDEKDLRREISYAIKNIHGVRTGLFTPDLAFEAIVKKQVVKLKEPCLKCVDLVIQELISTVRQCTSKLSSYPRLREETERIVTTYIREREGRTKDQILLLIDIEQSYINTNHEDFIGFANAQQRSTQLNKKRAIPNQGEILVIRRGWLTINNISLMKGGSKEYWFVLTAESLSWYKDEEEKEKKYMLPLDNLKIRDVEKGFMSNKHVFAIFNTEQRNVYKDLRQIELACDSQEDVDSWKASFLRAGVYPEKDQAENEDGAQENTFSMDPQLERQVETIRNLVDSYVAIINKSIRDLMPKTIMHLMINNTKAFIHHELLAYLYSSADQSSLMEESAEQAQRRDDMLRMYHALKEALNIIGDISTSTVSTPVPPPVDDTWLQNTSSHSPTPQRRPVSSVHPPGRPPAVRGPTPGPPLIPMPVGATSSFSAPPIPSRPGPQNVFANNDPFSAPPQIPSRPARIPPGIPPGVPSRRAPAAPSRPTIIRPAEPSLLD
modifications: tyrosine-phosphorylated: recognised by the 4G10 and pDyn2 (pTyr-231) antibodies
- fold association relative to Dyn2 YF [4]: 3 fold

The next lines start with the values.

- fold change [2]: weaker; reference 3.2 ± 0.6-fold
Molecule: Dyn2 (dynamin-2) (from UniProt P39052) Dyn2 Y231F/Y597F (YF)

- fold co-precipitated relative to Dyn2 YF [3]: 3.2 ± 0.6 fold
B1: Dyn2 WT (dynamin-2, wild type), expressed in cells (natural protein)
chain: MGNRGMEELIPLVNKLQDAFSSIGQSCHLDLPQIAVVGGQSAGKSSVLENFVGRDFLPRGSGIVTRRPLILQLIFSKTEYAEFLHCKSKKFTDFDEVRQEIEAETDRVTGTNKGISPVPINLRVYSPHVLNLTLIDLPGITKVPVGDQPPDIEYQIKDMILQFISRESSLILAVTPANMDLANSDALKLAKEVDPQGLRTIGVITKLDLMDEGTDARDVLENKLLPLRRGYIGVVNRSQKDIEGRKDIRAALAAERKFFLSHPAYRHMADRMGTPHLQKTLNQQLTNHIRESLPTLRSKLQSQLLSLEKEVEEYKNFRPDDPTRKTKALLQMVQQFGVDFEKRIEGSGDQVDTLELSGGARINRIFHERFPFELVKMEFDEKDLRREISYAIKNIHGVRTGLFTPDLAFEAIVKKQVVKLKEPCLKCVDLVIQELISTVRQCTSKLSSYPRLREETERIVTTYIREREGRTKDQILLLIDIEQSYINTNHEDFIGFANAQQRSTQLNKKRAIPNQGEILVIRRGWLTINNISLMKGGSKEYWFVLTAESLSWYKDEEEKEKKYMLPLDNLKIRDVEKGFMSNKHVFAIFNTEQRNVYKDLRQIELACDSQEDVDSWKASFLRAGVYPEKDQAENEDGAQENTFSMDPQLERQVETIRNLVDSYVAIINKSIRDLMPKTIMHLMINNTKAFIHHELLAYLYSSADQSSLMEESAEQAQRRDDMLRMYHALKEALNIIGDISTSTVSTPVPPPVDDTWLQNTSSHSPTPQRRPVSSVHPPGRPPAVRGPTPGPPLIPMPVGATSSFSAPPIPSRPGPQNVFANNDPFSAPPQIPSRPARIPPGIPPGVPSRRAPAAPSRPTIIRPAEPSLLD
